Laboratory results published in publication PMC8570342, “Identification of an Isoflavonoid Transporter Required for the Nodule Establishment of the Rhizobium-Fabaceae Symbiotic Interaction” (Frontiers in Plant Science, 2021).

Substrate: O=c1c(-c2ccc(O)cc2)coc2cc(O)cc(O)c12
Experiment: 3H-genistein uptake into yeast microsomal vesicles, rapid filtration, Hanes-Woolf plot
Format: biochemical, Lupinus albus
Conditions: labelled compound, 5 mM ATP, 10 mM MgCl2, 0.1 M KCl, pH 7.4, 30 s, empty-vector uptake subtracted, proton-driven
Description: 3H-genistein uptake into yeast microsomal vesicles, rapid filtration, Hanes-Woolf plot on LaMATE2 | LaMATE2 mediates an efficient transport of genistein which was characterized by a saturable kinetic

B1: LaMATE2 (Lupinus albus) (protein)
chain: MEESLIPKQVEQKTERYNEEKQKHKVTWNSFSEEMKRICVVAGPMVIVISSQYLLQVVSTMMVGHLGELYLSSAALAISLSSVTGFSLIMGMASGLETICGQAFGGKQYKRIGTQTYTAILSLTLVSFVLSLLWINMERILVFIGQDPLIAHESGKFIIWLIPALFAYAIMQPLVRYFQMQSLLFPMLISSLVALCIHIPLCWALVYKTRLHNVGGALALGISNWSNVIFLALYMRYSSACAKTRAPISMELFHGIWEFFRFAVPSALMICLEWWSFELLVLLSGLLPNPQLETSVLSVCLNTISTLYTIPFGIGAAASTRVSNELGAGNPHTARIAVLAAMSLAVLETCVVTGTLFACRHIFGYIFSNEKEVVDYVTLMAPLVCISVILDSLQGVLTGIARGCGWQHLGVYVNLGAFYLLGIPAAATLAFWFKLRGKGLWIGIQVGSFVQTLLLSIITSGINWEQQANKAKYRLLEDESSAENSLA
notes: full ORF in pNEV, no tag stated; expressed in Saccharomyces cerevisiae YPH499, microsomal membrane vesicles; 12 predicted transmembrane helices
Km: 16.2 µM
